From publication PMC11098746 (2024)
No end group written: not given here.

Molecular target: Circumsporozoite protein (CSP) (Plasmodium falciparum (isolate 3D7), UniProt Q7K740)
Test: AVEXIS screen signal:noise (double-corrected)

Sequence of Circumsporozoite protein (CSP) (Q7K740 19-374): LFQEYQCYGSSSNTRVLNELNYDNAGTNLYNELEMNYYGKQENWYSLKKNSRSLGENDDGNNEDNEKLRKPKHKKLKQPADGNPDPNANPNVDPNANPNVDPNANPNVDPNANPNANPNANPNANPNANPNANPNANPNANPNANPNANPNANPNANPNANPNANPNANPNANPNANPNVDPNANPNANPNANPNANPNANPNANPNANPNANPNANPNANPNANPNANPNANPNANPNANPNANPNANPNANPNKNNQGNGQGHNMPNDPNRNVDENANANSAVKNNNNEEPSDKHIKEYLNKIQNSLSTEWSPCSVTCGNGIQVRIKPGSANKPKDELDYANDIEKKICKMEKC

**Q.** With MASLGHILVFCVGLLTMAKAESPKEHDPFTYDYQS (also: human Fc-tagged dimer) [ADP327] as the binder, how does the binding score read?
**A.** 1.89

B1: ADP104 (protein)
chain: MEPPDAPAQARGAPRLLLLAVLLAAHPDAQAEVRLSVPPLVEVMRGKSVILDCTPTGTHDHYMLEWFLTDRSGARPRLASAEMQGSELQVTMHDTRGRSPPYQLDSQGRLVLAEAQVGDERDYVCVVRAGAAGTAEATARLNVFAKPEATEVSPNKGTLSVMEDSAQEIATCNSRNGNPAPKITWYRNGQRLEVPVEMNPEGYMTSRTVREASGLLSLTSTLYLRLRKDDRDASFHCAAHYSLPEGRHGRLDSPTFHLTLHYPTEHVQFWVGSPSTPAGWVREGDTVQLLCRGDGSPSPEYTLFRLQDEQEEVLNVNLEGNLTLEGVTRGQSGTYGCRVEDYDAADDVQLSKTLELRVAYLDPLELSEGKVLSLPLNSSAVVNCSVHGLPTPALRWTKDSTPLGDGPMLSLSSITFDSNGTYVCEASLPTVPVLSRTQNFTLLVQGSPELKTAEIEPKADGSWREGDEVTLICSARGHPDPKLSWSQLGGSPAEPIPGRQGWVSSSLTLKVTSALSRDGISCEASNPHGNKRHVFHFGTVSPQTSQAG
modifications: bait human Fc-tagged dimer
**Q.** With B1 as the binder, how does the binding score read?
**A.** 1.08

B2: ADP273 (protein)
chain: RGSCQACGDSVLVVSEDVNYEPDLDFHQGRLYWSDLQAMFLQFLGEGRLEDTIRQTSLRERVAGSAGMAALTQDIRAALSRQKLDHVWTDTHYVGLQFPDPAHPNTLHWVDEAGKVGEQLPLEDPDVYCPYSAIGNVTGELVYAHYGRPEDLQDLRARGVDPVGRLLLVRVGVISFAQKVTNAQDFGAQGVLIYPEPADFSQDPPKPSLSSQQAVYGHVHLGTGDPYTPGFPSFNQTQFPPVASSGLPSIPAQPISADIASRLLRKLKGPVAPQEWQGSLLGSPYHLGPGPRLRLVVNNHRTSTPINNIFGCIEGRSEPDHYVVIGAQRDAWGPGAAKSAVGTAILLELVRTFSSMVSNGFRPRRSLLFISWDGGDFGSVGSTEWLEGYLSVLHLKAVVYVSLDNAVLGDDKFHAKTSPLLTSLIESVLKQVDSPNHSGQTLYEQVVFTNPSWDAEVIRPLPMDSSAYSFTAFVGVPAVEFSFMEDDQAYPFLHTKEDTYENLHKVLQGRLPAVAQAVAQLAGQLLIRLSHDRLLPLDFGRYGDVVLRHIGNLNEFSGDLKARGLTLQWVYSARGDYIRAAEKLRQEIYSSEERDERLTRMYNVRIMRVEFYFLSQYVSPADSPFRHIFMGRGDHTLGALLDHLRLLRSNSSGTPGATSSTGFQESRFRRQLALLTWTLQGAANALSGDVWNIDNNF
modifications: bait human Fc-tagged dimer
**Q.** B2 was tested. Which binding score did it give?
**A.** 0.72

B3: ADP118 (protein)
chain: MARAAALLPSRSPPTPLLWPLLLLLLLETGAQDVRVQVLPEVRGQLGGTVELPCHLLPPVPGLYISLVTWQRPDAPANHQNVAAFHPKMGPSFPSPKPGSERLSFVSAKQSTGQDTEAELQDATLALHGLTVEDEGNYTCEFATFPKGSVRGMTWLRVIAKPKNQAEAQKVTFSQDPTTVALCISKEGRPPARISWLSSLDWEAKETQVSGTLAGTVTVTSRFTLVPSGRADGVTVTCKVEHESFEEPALIPVTLSVRYPPEVSISGYDDNWYLGRTDATLSCDVRSNPEPTGYDWSTTSGTFPTSAVAQGSQLVIHAVDSLFNTTFVCTVTNAVGMGRAEQVIFVRETPNTAGAGAT
modifications: bait human Fc-tagged dimer
**Q.** With B3 as the binder, how does the binding score read?
**A.** 0.743

B4: ADP133 (protein)
chain: MAPLRPLLILALLAWVALADQESCKGRCTEGFNVDKKCQCDELCSYYQSCCTDYTAECKPQVTRGDVFTMPEDEYTVYDDGEEKNNATVHEQVGGPSLTSDLQAQSKGNPEQTPVLKPEEEAPAPEVGASKPEGIDSRPETLHPGRPQPPAEEELCSGKPFDAFTDLKNGSLFAFRGQYCYELDEKAVRPGYPKLIRDVWGIEGPIDAAFTRINCQGKTYLFKGSQYWRFEDGVLDPDYPRNISDGFDGIPDNVDAALALPAHSYSGRERVYFFKGKQYWEYQFQHQPSQEECEGSSLSAVFEHFAMMQRDSWEDIFELLFWGRTSAGTRQPQFISRDWHGVPGQVDAAMAGRIYISGMAPRPSLAKKQRFRHRNRKGYRSQRGHSRGRNQNSRRPSRATWLSLFSSEESNLGANNYDDYRMDWLVPATCEPIQSVFFFSGDKYYRVNLRTRRVDTVDPPYPRSIAQYWLGCPAPGHL
modifications: bait human Fc-tagged dimer
**Q.** With B4 as the binder, how does the binding score read?
**A.** 1.13

B5: ADP343 (protein)
chain: MALASAAPGSIFCKQLLFSLLVLTLLCDACQKVYLRVPSHLQAETLVGKVNLEECLKSASLIRSSDPAFRILEDGSIYTTHDLILSSERKSFSIFLSDGQRREQQEIKVVLSARENKSPKKRHTKDTALKRSKRRWAPIPASLMENSLGPFPQHVQQIQSDAAQNYTIFYSISGPGVDKEPFNLFYIEKDTGDIFCTRSIDREKYEQFALYGYATTADGYAPEYPLPLIIKIEDDNDNAPYFEHRVTIFTVPENCRSGTSVGKVTATDLDEPDTLHTRLKYKILQQIPDHPKHFSIHPDTGVITTTTPFLDREKCDTYQLIMEVRDMGGQPFGLFNTGTITISLEDENDNPPSFTETSYVTEVEENRIDVEILRMKVQDQDLPNTPHSKAVYKILQGNENGNFIISTDPNTNEGVLCVVKPLNYEVNRQVILQVGVINEAQFSKAASSQTPTMCTTTVTVKIIDSDEGPECHPPVKVIQSQDGFPAGQELLGYKALDPEISSGEGLRYQKLGDEDNWFEINQHTGDLRTLKVLDRESKFVKNNQYNISVVAVDAVGRSCTGTLVVHLDDYNDHAPQIDKEVTICQNNEDFAVLKPVDPDGPENGPPFQFFLDNSASKNWNIEEKDGKTAILRQRQNLDYNYYSVPIQIKDRHGLVATHMLTVRVCDCSTPSECRMKDKSTRDVRPNVILG
modifications: bait human Fc-tagged dimer
**Q.** Which binding score does the source give for B5 here?
**A.** 0.814

B6: ADP128 (protein)
chain: MAAEGWIWRWGWGRRCLGRPGLLGPGPGPTTPLFLLLLLGSVTADITDGNSEHLKREHSLIKPYQGVGSSSMPLWDFQGSTMLTSQYVRLTPDERSKEGSIWNHQPCFLKDWEMHVHFKVHGTGKKNLHGDGIALWYTRDRLVPGPVFGSKDNFHGLAIFLDTYPNDETTERVFPYISVMVNNGSLSYDHSKDGRWTELAGCTADFRNRDHDTFLAVRYSRGRLTVMTDLEDKNEWKNCIDITGVRLPTGYYFGASAGTGDLSDNHDIISMKLFQLMVEHTPDEESIDWTKIEPSVNFLKSPKDNVDDPTGNFRSGPLT
modifications: bait human Fc-tagged dimer
**Q.** With B6 as the binder, how does the binding score read?
**A.** 1.03

B7: ADP147 (protein)
chain: MAACGRVRRMFRLSAALHLLLLFAAGAEKLPGQGVHSQGQGPGANFVSFVGQAGGGGPAGQQLPQLPQSSQLQQQQQQQQQQQQPQPPQPPFPAGGPPARRGGAGAGGGWKLAEEESCREDVTRVCPKHTWSNNLAVLECLQDVREPENEISSDCNHLLWNYKLNLTTDPKFESVAREVCKSTITEIKECADEPVGKGYMVSCLVDHRGNITEYQCHQYITKMTAIIFSDYRLICGFMDDCKNDINILKCGSIRLGEKDAHSQGEVVSCLEKGLVKEAEEREPKIQVSELCKKAILRVAELSSDDFHLDRHLYFACRDDRERFCENTQAGEGRVYKCLFNHKFEESMSEKCREALTTRQKLIAQDYKVSYSLAKSCKSDLKKYRCNVENLPRSREARLSYLLMCLESAVHRGRQVSSECQGEMLDYRRMLMEDFSLSPEIILSCRGEIEHHCSGLHRKGRTLHCLMKVVRGEKGNLGMNCQQALQTLIQETDPGADYRIDRALNEACESVIQTACKHIRSGDPMILSCLMEHLYTEKMVEDCEHRLLELQYFISRDWKLDPVLYRKCQGDASRLCHTHGWNETSEFMPQGAVFSCLYRHAYRTEEQGRRLSRECRAEVQRILHQRAMDVKLDPALQDKCLIDLGKWCSEKTETGQELECLQDHLDDLVVECRDIVGNLTELESEDIQIEALLMRACEPIIQNFCHDVADNQIDSGDLMECLIQNKHQKDMNEKCAIGVTHFQLVQMKDFRFSYKFKMACKEDVLKLCPNIKKKVDVVICLSTTVRNDTLQEAKEHRVSLKCRRQLRVEELEMTEDIRLEPDLYEACKSDIKNFCSAVQYGNAQIIECLKENKKQLSTRCHQKVFKLQETEMMDPELDYTLMRVCKQMIKRFCPEADSKTMLQCLKQNKNSELMDPKCKQMITKRQITQNTDYRLNPMLRKACKADIPKFCHGILTKAKDDSELEGQVISCLKLRYADQRLSSDCEDQIRIIIQESALDYRLDPQLQLHCSDEISSLCAEEAAAQEQTGQVEECLKVNLLKIKTELCKKEVLNMLKESKADIFVDPVLHTACALDIKHHCAAITPGRGRQMSCLMEALEDKRVRLQPECKKRLNDRIEMWSYAAKVAPADGFSDLAMQVMTSPS
modifications: bait human Fc-tagged dimer
**Q.** B7 was tested. Which binding score did it give?
**A.** 0.989

B8: ADP302 (protein)
chain: MAAWKSWTALRLCATVVVLDMVVCKGFVEDLDESFKENRNDDIWLVDFYAPWCGHCKKLEPIWNEVGLEMKSIGSPVKVGKMDATSYSSIASEFGVRGYPTIKLLKGDLAYNYRGPRTKDDIIEFAHRVSGALIRPLPSQQMFEHMQKRHRVFFVYVGGESPLKEKYIDAASELIVYTYFFSASEEVVPEYVTLKEMPAVLVFKDETYFVYDEYEDGDLSSWINRERFQNYLAMDGFLLYELGDTGKLVALAVIDEKNTSVEHTRLKSIIQEVARDYRDLFHRDFQFGHMDGNDYINTLLMDELTVPTVVVLNTSNQQYFLLDRQIKNVEDMVQFINNILDGTVEAQGGDSILQRLKRIVFDAKSTIVSIFKSSP
modifications: bait human Fc-tagged dimer
**Q.** B8 was tested. Which binding score did it give?
**A.** 1.19

B9: ADP117 (protein)
chain: MAAPGSARRPLLLLLLLLLLGLMHCASAAMFMVKNGNGTACIMANFSAAFSVNYDTKSGPKNMTFDLPSDATVVLNRSSCGKENTSDPSLVIAFGRGHTLTLNFTRNATRYSVQLMSFVYNLSDTHLFPNASSKEIKTVESITDIRADIDKKYRCVSGTQVHMNNVTVTLHDATIQAYLSNSSFSRGETRCEQDRPSPTTAPPAPPSPSPSPVPKSPSVDKYNVSGTNGTCLLASMGLQLNLTYERKDNTTVTRLLNINPNKTSASGSCGAHLVTLELHSEGTTVLLFQFGMNASSSRFFLQGIQLNTILPDARDPAFKAANGSLRALQATVGNSYKCNAEEHVRVTKAFSVNIFKVWVQAFKVEGGQFGSVEECLLDENSMLIP
modifications: bait human Fc-tagged dimer
**Q.** How did the binding score turn out when B9 was run?
**A.** 0.992

B10: ADP353 (protein)
chain: MAARWRFWCVSVTMVVALLIVCDVPSASAQRKKEMVLSEKVSQLMEWTNKRPVIRMNGDKFRRLVKAPPRNYSVIVMFTALQLHRQCVVCKQADEEFQILANSWRYSSAFTNRIFFAMVDFDEGSDVFQMLNMNSAPTFINFPAKGKPKRGDTYELQVRGFSAEQIARWIADRTDVNIRVIRPP
modifications: bait human Fc-tagged dimer
**Q.** Which binding score does the source give for B10 here?
**A.** 1.49

B11: ADP154 (protein)
chain: MAGKWLLCMLLVLGTAIVEAHDGHDDDVIDIEDDLDDVIEEVEDSKPDTTAPPSSPKVTYKAPVPTGEVYFADSFDRGTLSGWILSKAKKDDTDDEIAKYDGKWEVEEMKESKLPGDKGLVLMSRAKHHAISAKLNKPFLFDTKPLIVQYEVNFQNGIECGGAYVKLLSKTPELNLDQFHDKTPYTIMFGPDKCGEDYKLHFIFRHKNPKTGIYEEKHAKRPDADLKTYFTDKKTHLYTLILNPDNSFEILVDQSVVNSGNLLNDMTPPVNPSREIEDPEDRKPEDWDERPKIPDPEAVKPDDWDEDAPAKIPDEEATKPEGWLDDEPEYVPDPDAEKPEDWDEDMDGEWEAPQIANPRCESAPGCGVWQRPVIDNPNYKGKWKPPMIDNPSYQGIWKPRKIPNPDFFEDLEPFRMTPFSAIGLELWSMTSDIFFDNFIICADRRIVDDWANDGWGLKKAADGAAEPGVVGQMIEAAEERP
modifications: bait human Fc-tagged dimer
**Q.** How did the binding score turn out when B11 was run?
**A.** 0.77
